Data as given in the Immune Epitope Database (IEDB).
pKd: −log10 of the molar value. Blank lines part the entries; values can stand above or below the sequence they belong to.

Tests used:
HLA-A*02:01 [1] = experiment: IEDB peptide-MHC binding, purified MHC/direct/fluorescence; filed as Kd, often an IC50 or EC50 that approximates it; ≥ and ≤ were set here for values at or beyond the usual limits of such assays
HLA-A*69:01 = experiment: as above
HLA-A*02:50 = experiment: IEDB peptide-MHC binding, purified MHC/competitive/fluorescence; filed as Kd, often an IC50 or EC50 that approximates it; ≥ and ≤ were set here for values at or beyond the usual limits of such assays
HLA-B*15:01 [2] = experiment: as above
HLA-B*40:01 [3] = experiment: as above
HLA-A*02:03 [4] = experiment: IEDB peptide-MHC binding, purified MHC/competitive/radioactivity; filed as Kd, often an IC50 or EC50 that approximates it; ≥ and ≤ were set here for values at or beyond the usual limits of such assays; conditions: source organism: Vaccinia virus Copenhagen
HLA-A*02:02 = experiment: as above; conditions: source organism: Vaccinia virus Copenhagen
HLA-A*02:06 [5] = experiment: as above; conditions: source organism: Vaccinia virus Copenhagen
HLA-C*05:01 = experiment: IEDB peptide-MHC binding, purified MHC/direct/fluorescence; filed as Kd, often an IC50 or EC50 that approximates it; ≥ and ≤ were set here for values at or beyond the usual limits of such assays; conditions: source organism: Variola virus
HLA-A*02:01 [6] = experiment: IEDB peptide-MHC binding, purified MHC/competitive/fluorescence; filed as Kd, often an IC50 or EC50 that approximates it; ≥ and ≤ were set here for values at or beyond the usual limits of such assays; conditions: source organism: Variola virus
HLA-A*01:01 = experiment: IEDB peptide-MHC binding, purified MHC/direct/fluorescence; filed as Kd, often an IC50 or EC50 that approximates it; ≥ and ≤ were set here for values at or beyond the usual limits of such assays
HLA-B*15:17 = experiment: as above; conditions: source organism: Escherichia coli O157:H7
HLA-B*58:01 = experiment: as above
HLA-B*57:01 = experiment: as above
HLA-A*03:01 = experiment: as above
HLA-B*15:01 [7] = experiment: as above
HLA-B*18:01 = experiment: as above
HLA-B*07:02 = experiment: as above
HLA-A*31:01 = experiment: as above
HLA-B*27:05 = experiment: as above
HLA-A*26:02 = experiment: IEDB peptide-MHC binding, purified MHC/competitive/fluorescence; filed as Kd, often an IC50 or EC50 that approximates it; ≥ and ≤ were set here for values at or beyond the usual limits of such assays
HLA-A*11:01 [8] = experiment: as above; conditions: source organism: Escherichia coli str. K-12 substr. MG1655
HLA-A*68:02 [9] = experiment: as above; conditions: source organism: Escherichia coli str. K-12 substr. MG1655
HLA-B*39:01 [10] = experiment: as above
HLA-A*30:01 = experiment: as above; conditions: source organism: Homo sapiens
HLA-A*02:03 [11] = experiment: as above; conditions: source organism: Homo sapiens
HLA-B*08:01 [12] = experiment: as above; conditions: source organism: Homo sapiens
HLA-A*02:06 [13] = experiment: as above; conditions: source organism: Homo sapiens
HLA-B*39:01 [14] = experiment: IEDB peptide-MHC binding, purified MHC/direct/fluorescence; filed as Kd, often an IC50 or EC50 that approximates it; ≥ and ≤ were set here for values at or beyond the usual limits of such assays; conditions: source organism: Vibrio parahaemolyticus RIMD 2210633
HLA-B*08:02 = experiment: as above; conditions: source organism: Vibrio parahaemolyticus RIMD 2210633
HLA-A*11:01 [15] = experiment: as above
HLA-A*68:02 [16] = experiment: as above; conditions: source organism: Vibrio parahaemolyticus
HLA-B*15:09 = experiment: as above; conditions: source organism: Vibrio parahaemolyticus RIMD 2210633
HLA-B*08:01 [17] = experiment: as above
HLA-A*26:01 [18] = experiment: IEDB peptide-MHC binding, purified MHC/competitive/fluorescence; filed as Kd, often an IC50 or EC50 that approximates it; ≥ and ≤ were set here for values at or beyond the usual limits of such assays; conditions: source organism: Vibrio parahaemolyticus K5030
HLA-C*03:03 = experiment: IEDB peptide-MHC binding, purified MHC/direct/fluorescence; filed as Kd, often an IC50 or EC50 that approximates it; ≥ and ≤ were set here for values at or beyond the usual limits of such assays
HLA-A*26:01 [19] = experiment: as above
HLA-A*24:03 = experiment: as above; conditions: source organism: Yersinia pestis
HLA-B*44:02 = experiment: as above
HLA-B*40:01 [20] = experiment: as above
HLA-A*02:03 [21] = experiment: as above; conditions: source organism: Bacillus cereus 03BB108
HLA-A*02:12 = experiment: as above; conditions: source organism: Bacillus cereus 03BB108
[22] = source organism: Vibrio parahaemolyticus
[23] = source organism: Vibrio parahaemolyticus RIMD 2210633
[24] = source organism: Escherichia coli APEC O1
[25] = source organism: Escherichia coli O157:H7
[26] = source organism: Escherichia coli O139:H28 str. E24377A
[27] = source organism: Vibrio parahaemolyticus K5030
[28] = source organism: Yersinia pestis
[29] = source organism: Bacillus anthracis
[30] = source organism: Vibrio cholerae

Sequence: FQYYGIDWV
pKd (HLA-A*02:01 [1]; [22]): 7.93
pKd (HLA-A*69:01; [22]): 6.30
pKd (HLA-A*02:50; [23]): ≥ 10.00

pKd (HLA-B*15:01 [2]; [24]): 6.17
pKd (HLA-B*40:01 [3]; [24]): 8.96
Sequence: HESSVSWMF

Sequence: FVDTMSIYI
pKd (HLA-A*02:03 [4]): 6.43
pKd (HLA-A*02:02): 7.68
pKd (HLA-A*02:06 [5]): 7.79
pKd (HLA-C*05:01): 8.70
pKd (HLA-A*02:01 [6]): 9.40

pKd (HLA-A*01:01; [25]): ≤ 4.70
pKd (HLA-B*15:17): ≤ 4.70
pKd (HLA-B*58:01; [25]): ≤ 4.70
pKd (HLA-B*57:01; [25]): ≤ 4.70
pKd (HLA-A*03:01; [25]): ≤ 4.70
pKd (HLA-B*15:01 [7]; [25]): ≤ 4.70
pKd (HLA-B*18:01; [25]): ≤ 4.70
pKd (HLA-B*07:02; [25]): 5.15
pKd (HLA-A*31:01; [25]): ≤ 4.70
pKd (HLA-A*02:01 [1]; [25]): 5.16
pKd (HLA-B*27:05; [25]): ≤ 4.70
pKd (HLA-A*26:02; source organism: Escherichia coli str. K-12 substr. MG1655): 6.25
pKd (HLA-A*11:01 [8]): ≤ 4.70
pKd (HLA-A*68:02 [9]): 5.45
Sequence: NLPSKPVWL

pKd (HLA-B*39:01 [10]; [26]): 7.77
pKd (HLA-B*15:01 [2]; [26]): 6.82
pKd (HLA-B*40:01 [3]; [26]): 6.08
Sequence: LQMLGENVL

pKd (HLA-B*39:01 [10]; source organism: Homo sapiens): ≤ 4.70
pKd (HLA-A*26:02; source organism: Homo sapiens): ≤ 4.70
pKd (HLA-A*30:01): 5.63
pKd (HLA-A*02:03 [11]): ≤ 4.70
pKd (HLA-B*08:01 [12]): ≤ 4.70
pKd (HLA-A*02:06 [13]): 5.68
Sequence: VRVCACPGR

Sequence: DMRKRIEAF
pKd (HLA-B*39:01 [14]): ≤ 4.70
pKd (HLA-A*01:01; [22]): ≤ 4.70
pKd (HLA-B*58:01; [22]): ≤ 4.70
pKd (HLA-B*57:01; [22]): ≤ 4.70
pKd (HLA-B*08:02): 6.77
pKd (HLA-A*11:01 [15]; [22]): ≤ 4.70
pKd (HLA-A*68:02 [16]): ≤ 4.70
pKd (HLA-B*18:01; [23]): 7.60
pKd (HLA-B*15:09): ≤ 4.70
pKd (HLA-B*07:02; [22]): ≤ 4.70
pKd (HLA-B*08:01 [17]; [23]): 7.89
pKd (HLA-A*02:01 [1]; [22]): ≤ 4.70
pKd (HLA-A*69:01; [22]): ≤ 4.70
pKd (HLA-A*26:02; [27]): 8.14
pKd (HLA-A*26:01 [18]): ≤ 4.70
pKd (HLA-B*15:01 [2]; [27]): ≤ 4.70

Sequence: VAAHNAEAM
pKd (HLA-C*03:03; source organism: Leishmania major strain Friedlin): 8.70

Sequence: FMSLQSGDV
pKd (HLA-A*01:01; [28]): ≤ 4.70
pKd (HLA-A*26:01 [19]; [28]): ≤ 4.70
pKd (HLA-A*24:03): ≤ 4.70
pKd (HLA-B*58:01; [28]): ≤ 4.70
pKd (HLA-A*03:01; [28]): ≤ 4.70
pKd (HLA-A*11:01 [15]; [28]): ≤ 4.70
pKd (HLA-B*15:01 [7]; [28]): ≤ 4.70
pKd (HLA-B*44:02; [28]): ≤ 4.70
pKd (HLA-B*40:01 [20]; [28]): ≤ 4.70
pKd (HLA-B*07:02; [28]): ≤ 4.70
pKd (HLA-A*31:01; [28]): ≤ 4.70
pKd (HLA-B*08:01 [17]; [28]): ≤ 4.70
pKd (HLA-A*02:01 [1]; [28]): ≤ 4.70
pKd (HLA-A*69:01; [28]): 5.87
pKd (HLA-B*27:05; [28]): ≤ 4.70
pKd (HLA-A*02:50; source organism: Yersinia pestis Nepal516): 8.60

Sequence: AQMVWIHGV
pKd (HLA-A*02:03 [21]): 7.52
pKd (HLA-B*07:02; [29]): ≤ 4.70
pKd (HLA-A*02:01 [1]; [29]): 8.89
pKd (HLA-A*02:12): 7.15
pKd (HLA-A*02:50; source organism: Bacillus anthracis str. A2012): 9.52

Sequence: VLNETTNWL
pKd (HLA-C*03:03; source organism: Japanese encephalitis virus): ≤ 4.70
pKd (HLA-A*69:01; source organism: West Nile virus): ≤ 4.70

Sequence: FLHPKHWGT
pKd (HLA-A*01:01; [30]): ≤ 4.70
pKd (HLA-A*26:01 [19]; [30]): ≤ 4.70
pKd (HLA-B*58:01; [30]): ≤ 4.70
pKd (HLA-A*03:01; [30]): ≤ 4.70
pKd (HLA-A*11:01 [15]; [30]): ≤ 4.70
pKd (HLA-B*15:01 [7]; [30]): ≤ 4.70
pKd (HLA-B*44:02; [30]): ≤ 4.70
pKd (HLA-B*40:01 [20]; [30]): ≤ 4.70
pKd (HLA-B*07:02; [30]): ≤ 4.70
pKd (HLA-A*31:01; [30]): ≤ 4.70
pKd (HLA-B*08:01 [17]; [30]): 6.54
pKd (HLA-A*02:01 [1]; [30]): 6.80
pKd (HLA-A*69:01; [30]): 5.46
pKd (HLA-B*27:05; [30]): ≤ 4.70
pKd (HLA-A*02:50; source organism: Vibrio cholerae 2740-80): ≥ 10.00
